Laboratory results: patent publication US20170101472A1

Assays:
[1] = target: HEK293-hLAG3 and HEK293-mfLAG3 cells; assay: cell binding assay of Table 12, LAG3-expressing HEK293 cells against parental HEK293 cells
[2] = target: cynomolgus LAG3 on activated CD4+ and CD8+ cynomolgus T cells (cynomolgus); assay: FACS, stimulated cynomolgus CD4+ T cells, donor 1

ratio of binding above the HEK293 parental cells [1]	Ratio of MFI (11 nM/0 nM) [2]	Substance
0.7 to 1.1 fold	–	H4H isotype control and the H4sH isotype control
–	1	hIgG4 isotype control (antibody)
